From patent US20100081799A1, “Chelating Agent” (priority 2006, published 2010)

What was measured:
in vivo = experiment: in vivo; design: species or system mice; details: female, nude, mouse, iv, 38 uCi, total radioactivity
Description: (§1) Animal experiments. Due to its high sst2-somatostatin receptor expression, the rat pancreatic tumor cell line AR42J was used as a tumor model.^55 To establish tumor growth, cells were detached from the surface of the culture flasks using 1 mM EDTA in PBS, centrifuged and re-suspended in serum-free culture medium (RPMI-1640, Biochrom, Berlin, Germany). Concentration of the cell suspension was 3.7×10^6 cells/100 μL serum. Nude mice (female, 6-8 weeks) were injected 100 μL of the cell suspension subcutaneously into the flank.
(§2) For biodistribution studies, mice were intravenously injected 38 μCi [^68Ga]19 (corresponding to 0.15 μg of peptide) in 100 μL PBS into the tail vein. Non-specific tissue accumulation of the radioligand was determined by coinjection of an excess of cold competitor (20 μg Tyr^3-octreotide/mouse). At different time points after radioligand injection (30 and 60 min p.i.) mice (n=5 per time point; n=3 for blocking study at 60 min p.i.) were sacrificed and dissected. The organs of interest were removed, weighed and counted in a […] (Wallach, Turku, Finland). Data are expressed as percent injected dose per gram tissue (% iD/g).

[1] = tested on: AR42J tumor bearing nude mice; experiment: in vivo; details: mouse
Description: as §1, §2

[2] = blood concentration of the radioligand

Which tissue uptake at 0.5 h (in vivo; [2]) does the source give for `CC(=NOCC(=O)N[C@H](Cc1ccccc1)C(=O)N[C@H]1CSSC[C@@H](C(=O)N[C@H](C(=O)O)[C@@H](C)O)NC(=O)[C@H]([C@@H](C)O)NC(=O)[C@H](CCCCN)NC(=O)[C@@H](Cc2c[nH]c3ccccc23)NC(=O)[C@H](Cc2ccc(O)cc2)NC1=O)c1ccc(C(C(=O)O)N2CCN(CC(=O)O)CCN(CC(=O)O)CCN(CC(=O)O)CC2)cc1` (stereo partly shown) [[^68Ga]19, metal not drawn] here?
Its tissue uptake at 0.5 h is 2.37 ± 0.35 %ID/g.

What about the tissue uptake at 1 h (in vivo; [2]) of the same compound?
The tissue uptake at 1 h was 1.71 ± 0.17 %ID/g.

And the tissue uptake at 0.5 h (in vivo; kidney accumulation)?
Its tissue uptake at 0.5 h is 20 ± 2.4 %ID/g.

What about the tissue uptake at 1 h (in vivo; kidney accumulation) of the same compound?
The tissue uptake at 1 h was 11.9 ± 1.9 %ID/g.

And the tissue uptake at 0.5 h (in vivo; tumor accumulation)?
The tissue uptake at 0.5 h was 7.73 ± 1.52 %ID/g.

What about the tissue uptake at 1 h (in vivo; tumor accumulation) of the same compound?
The tissue uptake at 1 h was 7.46 ± 1.3 %ID/g.

And the “tumor/organ ratios (change)” value [1]?
The value was “increasing tumor/organ ratios”.
